Test results: patent US20240026407A1, “MODIFICATION OF SAPONINS” (GLAXOSMITHKLINE BIOLOGICALS SA, priority 2020, published 2024)

Legend:
Assay type in all cases: biochemical, Quillaja saponaria
[1] = Experiment 5-3: screening of additional glucosidases for deglycosylation with QS-18 in treated bark extract (80%) at pH 6 and 35 deg C; details: TBE 80% (QS-21 approx. 4 g/L), pH 6, 35 deg C; UV HPLC
Method: Experiment 5-1 was repeated, replacing CBE with Treated Bark Extract (TBE) at pH 6. TBE was prepared from CBE by PVPP treatment and concentration, to provide TBE with a QS-21 concentration of approximately 4 g/L. TBE was adjusted to pH 6 by dropwise addition of 2M NaOH with stirring.

[2] = Experiment 5-2: screening of additional glucosidases for deglycosylation with QS-18 in crude bark extract (80%) at pH 6 and 35 deg C; details: CBE 80%, pH 6, 35 deg C, 18 hours; UV HPLC
Method in brief: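 Deglycosylation of QS-18 was monitored by UV HPLC after MeCN/AcOH quench with hexanophenone. The reaction ran 18 hours at 35 deg C, shaking, combining clarified pH 6 lysate with crude bark extract neutralised to pH 6 by NaOH.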

[3] = Experiment 5-1: screening of additional glucosidases for deglycosylation with purified QS-18 (0.04 mg/ml) at pH 7.5 and 30 deg C; details: pH 7.5, 30 degrees C, 18 hours, LCMS/MS
Method: The 94 additional genes, together with positive control (DNA encoding SEQ ID No. 262) and negative control, were transformed, expressed, lysed and reacted in the same manner as described above for Experiment 4-1, except the reaction was incubated at 30 degrees C. for 18 hours.
Samples were analysed by LCMS/MS according to the procedure in Experiment 4-1.

B1: 841 (protein, listed as Mycetocola reblochoni)
chain: MTTPRPSLEQKAALTSGRDTWHSESLDDIPVMMMTDGPHGLRQQLQDGGDALGIGNSVPATCFPPAAGLASSWNTGLVERVGVALGTEARATEIRILLGPGLNIKRSPLGGRNFEYFSEDPRVSGELAAAMVTGIQSMGVAATPKHFAVNNQETDRLRVSAEVDERALREIYLSAFERVVTVASPWAFMSSYNRINGVYASENHWLLTELLREEWGFDGLVMSDWGAVNDRVAALAAGLELEMPPTGTDQLIVDAVRTGELDEAVLDRAVDRLRLLAERTERPPLTGYDADAHDDLARSAAQESIVLLKNADVLPLDAAATPRIAVVGEFARTPRYQGGGSSRVVPTRMHSALDALTDALGLGADGLSFSPGFALDGDTPAGAADEAVAAVEAADVAVLFLGLPDGTESEGFDRTTIALPAEQLHLLERAAATTTPVVVVLSNGAVVDVASWEHHADAILEAWLLGQAGGLAIADVLLGTVSPSGKLAETIPLDLADTPSHLSFPGRDGVVVYGESVYVGYRHYDTRRLPVAYPFGFGLSYTRFEYSELEVTATGRNSWTVAATVTNVGERRGAETVQLYIGVEQDRPDRPVHELRGFAKVDLEPGESARVELPVTERDLSHWSVRDGAWRVEKGRYTVELAAHSRDVRLATTITSEGDGVVTRLNGMSTVGEWLDHPYGREQIQWFIDGVDTRFGATAPEMIVMLKQLPIAKLTTFGIGLDSARIERMCAEAAADGERHGEQP
- Experiment 5-3 % conv [1]: <0.5%
- Experiment 5-2 % conv [2]: <0.5%
- Experiment 5-1 % conv [3]: 12.3%

B2: 849 (protein, listed as Bifidobacterium merycicum)
chain: MSDNTYPSVNDLTLEEEASLTSGGDAWHLQGVEAKGIPGYMITDGPHGLRKSLASNTGETDLNDSVPATCFPPAAGLSSSWNPELIRQVGEAMGEECIQEKVAVILGPGVNIKRNPLGGRCFEYWSEDPYLAGHEAVGIVAGVQSKGVGTSLKHFAANNQETDRLRVSANISQRALREIYFPAFEHIVKTAQPWTIMCSYNRINGVHSAQNRWLLTDVLRDEWGFEGIVMSDWGADHDRVASLNAGLNLEMPPTYTDDQIVYAARDGRIQPEQLDRMAQGMIDLVNKTRAAMSVEDYRFDVDAHNEIARRAAVESMVLLKNDDAILPVSRDAKIAVIGEFARTPRYQGGGSSHITPTKMTGFLDALAERGVPVDFAPGFTLDLEPTDPALEAEAVIAARDADVVLMFLGLPEAAESEGFDRDTLDIPAKQIELLKAVAAENKNVVVILSNGSVVSVAPWANNAKGILESWLLGQAGGAALADVIFGDVSPSGKLAQSVPMDINDDPSMINWPGEEGHVDYGEGVFVGYRYYDTYGKAVDYPFGYGLSYATFEIGGVKAVKTGANTARVSATVTNTSDVDAAETVQVYVAPGKADVARPKHELKAFRKVFLKAHESAEVSFDLDESAFAYWSEKFNDWHVEAGEYGIEVGMSSRDIAGVATVALDGDGKALPLTEWSTFGEWSADPVGSKVVADVREAGERGELPKLPDNDMMRMFLGSMPINSMSTLMGESGKAISSFMLDGYAKLVG
- Experiment 5-3 % conv [1]: <0.5%
- Experiment 5-2 % conv [2]: <0.5%
- Experiment 5-1 % conv [3]: 17.8%

B3: 803 (protein, listed as Penicillium italicum)
chain: MVQEKDISTADAVLASLTLEEKVSLLAGGSFWSTAAIPGKSIPSVKFSDGPNGARGSEMKGGPTSACFPCAVSLAATWNLDAIKEVGKALAEETKTKGANLLLGPTVCPHRHPLGGRNFESFSEDPFLSGMMASEYIVGLQGQGIGAAIKHFAANEQETFRNILDVTVSMRALREIYLKPFEIAIKQAKPWALMTAYNSVNGSHADCNSTLLQQILREEWKWDGLVLSDWGGTNSLVESLTAGLDLEMPGPPTVRKSELIMQALESNAIPESIINDRARAVLRFVATTTGFGPQKECKEYADDRPSHRELIRQVGREGIVLLKNEDDILPLKHTASAGSLTKIALLGFADEALIHGGGSAAVNAHHRITLAEGLRDAFKDRGLEIECAKGAHTLRKLPLMVDHVKNDEGKPGWSMQFLHPKDPAGVWRHIGEPSYTPTAPGNEGMTVRATTQFCVPASGRHYLSLSGLGPSSLKINGDEVYRQDGNCPDLMAFILTSYADIPVQYDFVAGQTYHIEVLSNPLEAYNGPSFMNGRAGFSVGFMLEAERDADLLAEAVTLASRSDIAIILTGNTAEWEAEGQDQVGFHLPRDGSQDRLVSAVAAANKSTIVVNCTGGPIAMPWIHEVKALLQAWFPGQEAGHSIADILVGDRFPSGRLPVTFPRAIEDTPAYRNFPGGFEEDGRARVRYEEGVFVGYRFYDHTPEQREKVLFPFGYGLSYTSFTLHDISLATLKDHHENHIEVRVSVSNVGKRRGTETIQVYVGRADHSEQHPWKTLVAFAQVSLDAGETREMSLELSRRDLAFYDESTEHWVVEASDYLVHVGTSVFEIASTERLHIPERIDYAL
- Experiment 5-3 % conv [1]: <0.5%
- Experiment 5-2 % conv [2]: <0.5%
- Experiment 5-1 % conv [3]: 13.1%

B4: 830 (protein)
chain: MGTAHDLEQLIAGLTLEEKIALLAGDSLWTVPGIPRLGIRPLKVSDGPAGVRGSRIVPAAAFPAPVLLGATWDPELVERVGQALAEEAETKGAQVVLAPTINLQRTALGGRNFECFSEDPHLTARLAVAYVRGLQSRGIGACIKHYVANDQEFERHTVSVEVDERTLREVYLFPFAVAVAEADPWCVMAAYNRVGGIYCSEHPWLLTTILREELGYQGVVMSDWFATHSTIEALQAGLDLEMPGPPQWRGDKLREAVERGEVALEVIERSARRVLMLYQRAGRFAPGPETSEERAVDRPEHRALIREVGASGMVLLRNEGILPLDLSTVKRVAVIGPHVRRPAVGGGGSAFVRSHPVVTPLEALRESAPQCEFLVEEGAAIFKLIPPLEGEALGSEGAELAFFANPELAGAPVATIRVRTTDLIWLGEVAPGVDASAFSARLRVTMRPEESGRYVLGATAVGQVRVHLDGTLVLDNWTAPQPGRTYFGFGSAEVRAAVDLEAERAYEIVVEYRKFQPGLPLAGFRFGVVHELSDEERIARSVRAAQQADLALLFVGLSPEWESEGFDRESFDLPGAQNALVTAVADANPNTVVVLTAGSPVNLPWLERVGALLLAWYAGEEVGHAVVDVLTGVREPAGRLPFTYPQRLEDTPAFLNYPGEFGRLRYCEGLFIGYRWYDARQIEPLFPFGFGLGYTRFAYRDLVLDRESLGGEEKLTVTCTVENVGERAGSEVVQLYLAFPPGTVRRPLKELRGFRRVHLMPQGSASVSFTVSPRDLAYFDEAAREWVAPPGEYEIMIGAHARDIRLRGRFLLREELRWDAGGRFRDV
modifications: bacterium
- Experiment 5-3 % conv [1]: <0.5%
- Experiment 5-2 % conv [2]: <0.5%
- Experiment 5-1 % conv [3]: 9.3%

B5: 890 (protein, listed as Arthrobacter ulcerisalmonis)
chain: MNLPLSPAVTAPAAGSPDAEALIHNLADSLSLAEQVQLLTGADVWSTHTLPSIGLSRIVLSDGPAGVRGEDFDERHDSVSLPSSSALSASWSAELAHRYGQVLGQEARRKGVHAVLGPTINLHRSPLGGRHFECMSEDPRLTATMAAGYVAGVQSMGVGATPKHYLANESETDRFTVDSVVAERPLRELYLAAFEDAITESRAWLVMSSYNSINGTTASENDLLETPLSTEWGFDGVVVSDWTGVRSVEAANAHQDLEMPGPVGHWSAKLLAAVESGQVSREAIVEKVVRILRLAARVGSLDGVSPAVAELPAALDSAAVAREVAIRGAVLIRNSAGLLPLDASALTSVALSGHNADEARTQGGGSATVMPKQNISPLMGLREALPATTSLSYTRGAKVAEGLQQFARTALHNPVSNVPGARVTFLDASGTEIFAEDRLASSLIWFGVGIPEGTAAITISTDWTAEQAGVHHLGLGTVGQARLSFNGTEVFNGELLDTTNVLGAALFDPPSTVHQIETTAGETVRIEAHYTLPPEQFIPLTAILLGEEAVVTDPQAEIDDAVAAASSADVAIVVVGTNSSIESEGFDRSNLDLPGHQNELVRAVAAANPRTIVVVNSGSPVLMPWLEDVGAVLLGWFGGQEFGRAIADILLGVAEPGGRLPTSWPAALADVPVLSTTPVEGKLEYAEGIHVGYRAWLQQQAAGGPAPAVPFGFGLGYTSFEFSAPHAPQQVQAGNDVIVHVPVRNTGSRAGREVVQVYLERPDSTVERPVRWLAGFAGTHLAPAGTESVEVRIPARAFEHYDGGWQVERGAFRILVGKHVEDDFQVLAIDVR
- Experiment 5-3 % conv [1]: <0.5%
- Experiment 5-2 % conv [2]: <0.5%
- Experiment 5-1 % conv [3]: 12.6%

B6: 832 (protein, listed as Arthrobotrys oligospora)
chain: MDATTLKEIEETLAQLTLEEKISLLAGKDFWRTVPLPEKQIPSIKVSDGPSGARGDTFSGGQKAAFFPSGILMGATFNPELAYETGALLGEEVKAKSASVLLAPTACCHRSPLGGRNFESYSEDPLLSGKMASGYIRGVQSRGIAATMKHFVANEQETWRLYVDETIDETTLREIYLKPFEIAMREGQPWAIMTAYNIINGVHCDSHPLALKQVLRGEWNYEGLVMSDWFGCNSMVESLLAGLDLEMPGPARKRPIKEFVEAAEKDESIRKAIDDSARRILTLIAKVGKWKDMTPEAPEYSRNDPETGKLIRRAGGEGTVLLKNEGKTLPLQPGSLKKVAFIGPNAKATVAGGGGSASLEPNYLTQPYETFVNAIKEINGDIEVPWVQGCIIDRWVPNIDVEGGFCRVGGPDSEAGLFLEWFRGYEATGEPVATTVFKTSNAFLWDSRPTSISPSEEFSVKFSGQISVPEDGKYNISLSTITASKLYLNGELLIDNWDFKERGNLMMNVGSEEVVKTIELKKGEWYPILVHNSSIWPKDSPRDPPMEEIGALGIRLGVAPVYDNAVLIAEAADAVKDADAVVIVVGLNNEWESESYDRSDTKLPNNQDDLIEEIAKVNQNVIVVNQSGAPVDMPWAENSNVKAIVQAWYAGQEAGHVIADVLLGKQNPSGKLPLTFPIKVQDNPSYFYFPGRDQKVEYTEKLMVGYRYYDTENVETRFPFGYGLSYSTFSIGEPSLSTAELTEGQTFTANIDVSNTSNVAGAEVVQLYVKRPASTSSIKRPVKELKGFKKVHLGTGETATANITVDDKSLGIWSTEAGKWVVEAGDYEVLIGTSSVQDELKPAGKITVKAAWSWI
- Experiment 5-3 % conv [1]: <0.5%
- Experiment 5-2 % conv [2]: <0.5%
- Experiment 5-1 % conv [3]: 9.8%
